“And” between values parts separate entries of the source, which are not always exact repeats. Equal entries are not always repeated.
T1: LRP6.E1-E2 fragment (biotinylated, His-tagged) (Homo sapiens (Human), UniProt O75581 19-644, biotinylated (AviTag system))
T1 construct: BLI antigen from baculovirus-infected insect cells; also called LRP6 E1-E2 protein fragment; not shown: His tag and AviTag
T1 sequence: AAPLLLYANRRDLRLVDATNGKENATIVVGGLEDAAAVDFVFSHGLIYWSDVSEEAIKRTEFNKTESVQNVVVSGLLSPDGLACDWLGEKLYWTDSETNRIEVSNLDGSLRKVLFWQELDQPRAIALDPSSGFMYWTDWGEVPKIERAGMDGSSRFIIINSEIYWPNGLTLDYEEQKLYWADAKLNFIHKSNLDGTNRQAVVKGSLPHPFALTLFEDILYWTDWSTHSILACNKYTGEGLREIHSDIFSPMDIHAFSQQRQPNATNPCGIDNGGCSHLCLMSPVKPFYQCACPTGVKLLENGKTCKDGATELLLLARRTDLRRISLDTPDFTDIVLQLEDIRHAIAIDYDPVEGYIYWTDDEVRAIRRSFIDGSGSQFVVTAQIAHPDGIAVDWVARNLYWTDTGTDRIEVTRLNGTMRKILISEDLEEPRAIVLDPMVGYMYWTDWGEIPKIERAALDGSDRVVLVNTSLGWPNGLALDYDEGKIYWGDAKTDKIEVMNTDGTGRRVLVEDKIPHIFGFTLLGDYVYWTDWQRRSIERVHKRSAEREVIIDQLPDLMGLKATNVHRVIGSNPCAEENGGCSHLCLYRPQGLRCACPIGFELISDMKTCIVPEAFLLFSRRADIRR

T2: LRP6 (human; form used in the assay not stated) (human, UniProt O75581 20-1253, limits assumed)
T2 construct: probably an E3-E4 fragment for SPR
T2 sequence: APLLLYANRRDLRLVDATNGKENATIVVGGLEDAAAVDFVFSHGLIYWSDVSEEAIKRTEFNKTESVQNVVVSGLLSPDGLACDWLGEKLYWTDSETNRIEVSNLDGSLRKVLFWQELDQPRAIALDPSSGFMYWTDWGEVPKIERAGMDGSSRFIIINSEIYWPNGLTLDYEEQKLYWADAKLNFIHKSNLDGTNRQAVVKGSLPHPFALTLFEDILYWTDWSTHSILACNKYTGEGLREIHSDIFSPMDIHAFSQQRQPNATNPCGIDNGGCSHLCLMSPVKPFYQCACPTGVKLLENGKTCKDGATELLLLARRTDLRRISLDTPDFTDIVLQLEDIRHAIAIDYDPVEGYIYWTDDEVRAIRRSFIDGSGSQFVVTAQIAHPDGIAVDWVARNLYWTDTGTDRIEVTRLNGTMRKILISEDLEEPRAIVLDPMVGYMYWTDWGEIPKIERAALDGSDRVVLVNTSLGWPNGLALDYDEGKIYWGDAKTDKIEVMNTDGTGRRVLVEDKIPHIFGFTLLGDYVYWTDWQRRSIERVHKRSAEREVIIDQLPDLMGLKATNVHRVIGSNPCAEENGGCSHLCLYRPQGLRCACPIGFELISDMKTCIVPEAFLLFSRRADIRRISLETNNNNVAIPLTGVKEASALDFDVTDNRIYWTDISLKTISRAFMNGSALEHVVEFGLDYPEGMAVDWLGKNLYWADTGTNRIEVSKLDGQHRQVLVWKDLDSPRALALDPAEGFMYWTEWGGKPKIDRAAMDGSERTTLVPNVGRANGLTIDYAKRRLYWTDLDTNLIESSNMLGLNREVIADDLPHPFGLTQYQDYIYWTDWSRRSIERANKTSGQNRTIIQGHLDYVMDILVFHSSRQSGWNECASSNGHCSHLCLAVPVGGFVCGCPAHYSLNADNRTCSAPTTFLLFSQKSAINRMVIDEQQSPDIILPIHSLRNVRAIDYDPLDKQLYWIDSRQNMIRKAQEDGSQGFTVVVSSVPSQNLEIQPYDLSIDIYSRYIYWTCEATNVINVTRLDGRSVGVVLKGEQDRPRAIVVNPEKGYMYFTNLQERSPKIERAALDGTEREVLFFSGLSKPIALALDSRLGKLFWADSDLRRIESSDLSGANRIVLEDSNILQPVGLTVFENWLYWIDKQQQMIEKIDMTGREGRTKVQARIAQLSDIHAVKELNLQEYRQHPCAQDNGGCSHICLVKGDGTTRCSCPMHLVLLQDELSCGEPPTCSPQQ

B1: Wnt9b (ligand, mouse, UniProt O35468 24-359, looked up)
chain: AAYFGLTGREVLTPFPGLGTAAAPAQAGAHLKQCDLLKLSRRQKQLCRREPGLAETLRDAAHLGLLECQFQFRQERWNCSLEGRTGLLQRGFKETAFLYAVSAAALTHALARACSAGRMERCTCDDSPGLESRQAWQWGVCGDNLKYSTKFLSNFLGPKRGSKDLRARADAHNTHVGIKAVKSGLRTTCKCHGVSGSCAVRTCWKQLSPFRETGQVLKLRYDTAVKVSSATNEALGRLELWAPAKPGGPAKGLAPRPGDLVYMEDSPSFCRPSKYSPGTAGRVCSRDSSCSSLCCGRGYDTQSRMVVFSCHCQVQWCCYVECQQCAQQELVYTCKR
notes: also called purified mouse Wnt9b
B2: YW211.31 antibody (antibody, human IgG1, kappa, V domains shown)
VH: EVQLVESGGGLVQPGGSLRLSCAASGFTFTSYYISWVRQAPGKGLEWVAEISPYSGSTYYADSVKGRFTISADTSKNTAYLQMNSLRAEDTAVYYCALRARPPIRLHPRGSVMDYWGQGTLVTVSS
VL: DIQMTQSPSSLSASVGDRVTITCRASQDVSTAVAWYQQKPGKAPKLLIYSASFLYSGVPSRFSGSGSGTDFTLTISSLQPEDFATYYCQQSYTTPPTFGQGTKVEIKR
notes: also called intact YW211.31 antibody

Assays:
[1] = target: T1, LRP6.E1-E2 fragment (biotinylated, …); experiment: biolayer interferometry, immobilized LRP6 E1-E2 fragment; Wnt9b at 200 nM; association then dissociation phase
Method: Biolayer interferometry was performed as previously described (Bourhis et al., 2010). Briefly, biotinylated, His-tagged LRP6 proteins were purified from baculovirus-infected insect cells using the AviTag system (GeneCopoeia). Binding kinetics were measured on the Octet RED System (ForteBio) using Streptavidin High Binding FA Biosensors loaded with 20 μg/ml LRP6 protein.
In these assays, antibody binding to LRP6 protein was allowed to reach equilibrium, and the subsequent wavelength shift in the interference pattern is shown for association and dissociation phases of Wnt protein binding.

[2] = target: LRP6.E1-E2-Fc (human); experiment: ELISA
[3] = target: T3, LRP6.E3-E4-Fc (human); experiment: ELISA
T3 construct: also called LRP6.E3-4-Fc

[4] = target: LRP6 on HEK293 cells (human, UniProt O75581 20-1613); experiment: cell-based or functional assay
[5] = target: T2, LRP6 (human; form used in the assay not …); experiment: SPR; LRP6 construct not stated; SPR
[6] = target: T2, LRP6 (human; form used in the assay not …); experiment: Scatchard analysis; format not stated; Scatchard analysis

LRP6.E1-E2-Fc (human), sequence (chain, as listed by the source limits assumed): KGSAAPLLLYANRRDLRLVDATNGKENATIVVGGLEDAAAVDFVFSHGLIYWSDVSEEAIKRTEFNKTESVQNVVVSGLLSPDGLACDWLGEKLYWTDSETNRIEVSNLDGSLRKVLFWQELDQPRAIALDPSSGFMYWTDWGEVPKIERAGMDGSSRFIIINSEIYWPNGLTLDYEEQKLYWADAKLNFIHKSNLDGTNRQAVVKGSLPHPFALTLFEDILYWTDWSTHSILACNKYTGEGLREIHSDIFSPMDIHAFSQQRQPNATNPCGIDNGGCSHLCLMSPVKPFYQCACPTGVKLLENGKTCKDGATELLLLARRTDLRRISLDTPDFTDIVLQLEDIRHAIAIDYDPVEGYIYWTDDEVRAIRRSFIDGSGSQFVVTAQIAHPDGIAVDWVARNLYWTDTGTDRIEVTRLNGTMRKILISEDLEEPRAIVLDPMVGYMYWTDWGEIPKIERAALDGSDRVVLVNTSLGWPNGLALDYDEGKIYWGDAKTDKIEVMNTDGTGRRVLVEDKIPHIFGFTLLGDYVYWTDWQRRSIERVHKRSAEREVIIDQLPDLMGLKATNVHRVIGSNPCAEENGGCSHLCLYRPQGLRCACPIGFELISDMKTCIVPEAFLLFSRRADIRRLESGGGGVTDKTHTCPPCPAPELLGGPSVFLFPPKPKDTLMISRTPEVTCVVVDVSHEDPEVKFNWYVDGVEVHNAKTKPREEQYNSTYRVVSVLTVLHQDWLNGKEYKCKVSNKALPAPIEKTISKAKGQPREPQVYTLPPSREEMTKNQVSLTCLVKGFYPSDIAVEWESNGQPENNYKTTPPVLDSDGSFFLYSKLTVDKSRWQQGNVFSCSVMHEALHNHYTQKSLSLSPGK
T3 sequence (chain, as listed by the source limits assumed): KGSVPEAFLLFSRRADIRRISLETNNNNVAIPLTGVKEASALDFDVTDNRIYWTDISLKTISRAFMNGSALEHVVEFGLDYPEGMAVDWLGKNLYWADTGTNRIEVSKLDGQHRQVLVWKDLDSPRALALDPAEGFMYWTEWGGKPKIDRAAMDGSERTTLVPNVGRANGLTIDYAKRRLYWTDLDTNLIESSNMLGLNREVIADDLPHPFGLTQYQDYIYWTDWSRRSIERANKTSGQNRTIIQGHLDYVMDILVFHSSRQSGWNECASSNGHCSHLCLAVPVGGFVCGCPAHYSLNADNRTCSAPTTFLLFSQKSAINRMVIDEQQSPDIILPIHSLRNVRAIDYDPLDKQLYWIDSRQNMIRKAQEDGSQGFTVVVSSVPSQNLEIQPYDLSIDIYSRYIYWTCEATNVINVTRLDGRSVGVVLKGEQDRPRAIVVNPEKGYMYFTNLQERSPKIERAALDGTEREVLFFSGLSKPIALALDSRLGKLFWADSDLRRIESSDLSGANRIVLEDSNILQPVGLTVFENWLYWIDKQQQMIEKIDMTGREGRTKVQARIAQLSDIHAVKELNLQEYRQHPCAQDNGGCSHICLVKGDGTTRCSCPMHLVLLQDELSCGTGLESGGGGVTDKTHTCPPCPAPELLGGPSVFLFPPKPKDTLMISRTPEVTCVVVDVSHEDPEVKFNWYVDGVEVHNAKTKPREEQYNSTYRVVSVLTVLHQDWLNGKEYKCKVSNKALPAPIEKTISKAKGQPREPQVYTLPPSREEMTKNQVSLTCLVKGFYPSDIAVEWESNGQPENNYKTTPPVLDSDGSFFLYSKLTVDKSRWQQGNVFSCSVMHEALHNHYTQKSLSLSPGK

| Binder | binding result [1] | binding result [2] | binding result [3] | IC50, inhibition of signaling (Wnt luciferase reporter) in Wnt3a-stimulated HEK293 cells [4] | Kd [5] | Kd [6] |
| --- | --- | --- | --- | --- | --- | --- |
| B1 | binds |  |  |  |  |  |
| B2 |  | no binding | binds | ~1 ug/ml and ~6 nM | ~2 nM | ~0.6 nM |

Reference: patent US20110256127A1 (Genentech, published 2011)
